Results published in publication PMC3510454, “Elba, a novel developmentally regulated chromatin boundary factor is a hetero-tripartite DNA binding complex”.

B1: M6 oligo (dsDNA)
DNA 1: TGCAGCGCCCAATAAGCAAATGTACGC
DNA 2: GCGTACATTTGCTTATTGGGCGCTGCA
modifications: 3-bp substitution
B2: Elba probe 27 bp (WT) (dsDNA)
DNA 1: TGCAGCGCCCAATAAGCAAATGGCAGC
DNA 2: GCTGCCATTTGCTTATTGGGCGCTGCA

Tests used:
Elba1;Elba2;Elba3 [1] = biological target: T1, Elba1;Elba2;Elba3 (Drosophila melanogaster?;Drosophila …, UniProt Q9VR17;Q9VQD6;Q9VR19 1-363;1-381;1-379, ||); experiment: competition; 100-fold excess; EMSA: ~0.1 M KCl, 12.5-250 ug/ml poly(dI-dC):poly(dI-dC), 1/2 hr at room temperature, 4% acrylamide gel, otherwise as Aoki et al. 2008; affinity beads: HBB (10); conditions: protein: ivt;ivt;ivt; tags: none;none;none; copies: 1;1;1; label: none
T1 sequence 1: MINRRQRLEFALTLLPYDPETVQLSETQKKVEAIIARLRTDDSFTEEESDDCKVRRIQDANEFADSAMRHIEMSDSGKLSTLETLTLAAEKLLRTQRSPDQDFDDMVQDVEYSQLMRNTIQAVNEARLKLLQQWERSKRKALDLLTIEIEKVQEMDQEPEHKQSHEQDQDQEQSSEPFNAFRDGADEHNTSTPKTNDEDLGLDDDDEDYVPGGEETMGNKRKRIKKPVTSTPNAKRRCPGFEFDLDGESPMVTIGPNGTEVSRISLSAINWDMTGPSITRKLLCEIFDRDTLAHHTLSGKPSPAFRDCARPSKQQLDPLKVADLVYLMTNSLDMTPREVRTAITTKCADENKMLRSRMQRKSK
T1 sequence 2: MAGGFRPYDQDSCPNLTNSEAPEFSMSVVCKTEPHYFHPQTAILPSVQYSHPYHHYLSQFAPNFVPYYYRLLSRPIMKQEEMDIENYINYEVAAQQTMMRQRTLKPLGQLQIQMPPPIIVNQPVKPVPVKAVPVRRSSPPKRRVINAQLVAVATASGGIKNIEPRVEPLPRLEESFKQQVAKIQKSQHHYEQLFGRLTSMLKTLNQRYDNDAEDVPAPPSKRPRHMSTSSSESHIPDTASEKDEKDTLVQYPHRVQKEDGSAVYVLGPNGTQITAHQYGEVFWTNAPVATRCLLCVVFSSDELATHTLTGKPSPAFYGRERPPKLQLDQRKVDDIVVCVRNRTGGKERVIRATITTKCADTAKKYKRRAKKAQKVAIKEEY
T1 sequence 3: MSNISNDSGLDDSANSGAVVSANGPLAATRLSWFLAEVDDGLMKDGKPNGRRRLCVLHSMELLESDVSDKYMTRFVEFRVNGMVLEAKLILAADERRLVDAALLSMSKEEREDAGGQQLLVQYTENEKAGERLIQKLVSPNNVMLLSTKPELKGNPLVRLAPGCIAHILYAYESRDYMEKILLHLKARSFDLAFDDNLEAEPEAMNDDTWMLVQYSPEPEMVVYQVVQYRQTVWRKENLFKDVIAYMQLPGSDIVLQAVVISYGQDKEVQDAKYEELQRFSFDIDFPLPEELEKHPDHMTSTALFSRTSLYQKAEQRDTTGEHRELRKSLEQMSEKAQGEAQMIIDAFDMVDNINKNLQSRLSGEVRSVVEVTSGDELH

[2] = biological target: T2, GST-Elba1 BEN;GST-Elba2 BEN (Drosophila melanogaster?;Drosophila …, UniProt Q9VR17;Q9VQD6 255-363;268-381, |); experiment: EMSA; EMSA: ~0.1 M KCl, 12.5-250 ug/ml poly(dI-dC):poly(dI-dC), 1/2 hr at room temperature, 4% acrylamide gel, otherwise as Aoki et al. 2008; affinity beads: HBB (10); conditions: protein: ivt;ivt; tags: N-terminal FLAG and GST;N-terminal FLAG and GST; copies: 1;1
T2 sequence 1: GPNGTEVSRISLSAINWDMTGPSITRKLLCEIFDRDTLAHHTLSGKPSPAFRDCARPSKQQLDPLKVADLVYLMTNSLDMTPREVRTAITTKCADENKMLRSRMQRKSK
T2 sequence 2: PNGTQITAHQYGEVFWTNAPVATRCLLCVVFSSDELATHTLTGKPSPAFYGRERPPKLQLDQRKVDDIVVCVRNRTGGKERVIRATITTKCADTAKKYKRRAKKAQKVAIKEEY

Elba1;Elba2;Elba3 [3] = biological target: T1, Elba1;Elba2;Elba3; experiment: as above; conditions: protein: ivt;ivt;ivt; tags: none;none;none; copies: 1;1;1
[4] = biological target: T3, FLAG-Elba1F;FLAG-Elba2F;FLAG-Elba3F (Drosophila melanogaster?;Drosophila …, UniProt Q9VR17;Q9VQD6;Q9VR19 1-363;1-381;1-379, ||); experiment: as above; conditions: protein: ivt;ivt;ivt; tags: N-terminal FLAG;N-terminal FLAG;N-terminal FLAG; copies: 1;1;1
T3 sequence 1: T1 sequence 1
T3 sequence 2: T1 sequence 2
T3 sequence 3: T1 sequence 3

[5] = biological target: T4, GST-Elba1F;GST-Elba2F;FLAG-Elba3F (Drosophila melanogaster?;Drosophila …, UniProt Q9VR17;Q9VQD6;Q9VR19 1-363;1-381;1-379, ||); experiment: EMSA; supershift by Elba3; EMSA: ~0.1 M KCl, 12.5-250 ug/ml poly(dI-dC):poly(dI-dC), 1/2 hr at room temperature, 4% acrylamide gel, otherwise as Aoki et al. 2008; affinity beads: HBB (10); conditions: protein: ivt;ivt;ivt; tags: N-terminal FLAG and GST;N-terminal FLAG and GST;N-terminal FLAG; copies: 1;1;1
T4 sequence 1: T1 sequence 1
T4 sequence 2: T1 sequence 2
T4 sequence 3: T1 sequence 3

GST-Elba1F;GST-Elba2F = biological target: T5, GST-Elba1F;GST-Elba2F (Drosophila melanogaster?;Drosophila …, UniProt Q9VR17;Q9VQD6 1-363;1-381, |); experiment: EMSA; co-translated; EMSA: ~0.1 M KCl, 12.5-250 ug/ml poly(dI-dC):poly(dI-dC), 1/2 hr at room temperature, 4% acrylamide gel, otherwise as Aoki et al. 2008; affinity beads: HBB (10); conditions: protein: ivt;ivt; tags: N-terminal FLAG and GST;N-terminal FLAG and GST; copies: 1;1
T5 sequence 1: T1 sequence 1
T5 sequence 2: T1 sequence 2

Binder | binding result (Elba1;Elba2;Elba3 [1]) | binding result [2] | binding result (Elba1;Elba2;Elba3 [3]) | binding result [4] | binding result [5] | binding result (GST-Elba1F;GST-Elba2F)
B1 | binds | – | – | – | – | –
B2 | – | no binding | binds | binds | binds | binds
